These results are taken from PMC4464401, “Biochemical properties and yields of diverse bacterial laccase-like multicopper oxidases expressed in Escherichia coli” (Scientific Reports, 2015).

Holding throughout (assay): spectrophotometric oxidation, Michaelis-Menten fit with uncompetitive substrate inhibition
For one data set, the target named is T1, B. coagulans LMCO (CotA) (Heyndrickxia coagulans, UniProt A0AAN0WB15).
T1 construct: gene SB48_HM08orf01352
T1 sequence (A0AAN0WB15 1-522): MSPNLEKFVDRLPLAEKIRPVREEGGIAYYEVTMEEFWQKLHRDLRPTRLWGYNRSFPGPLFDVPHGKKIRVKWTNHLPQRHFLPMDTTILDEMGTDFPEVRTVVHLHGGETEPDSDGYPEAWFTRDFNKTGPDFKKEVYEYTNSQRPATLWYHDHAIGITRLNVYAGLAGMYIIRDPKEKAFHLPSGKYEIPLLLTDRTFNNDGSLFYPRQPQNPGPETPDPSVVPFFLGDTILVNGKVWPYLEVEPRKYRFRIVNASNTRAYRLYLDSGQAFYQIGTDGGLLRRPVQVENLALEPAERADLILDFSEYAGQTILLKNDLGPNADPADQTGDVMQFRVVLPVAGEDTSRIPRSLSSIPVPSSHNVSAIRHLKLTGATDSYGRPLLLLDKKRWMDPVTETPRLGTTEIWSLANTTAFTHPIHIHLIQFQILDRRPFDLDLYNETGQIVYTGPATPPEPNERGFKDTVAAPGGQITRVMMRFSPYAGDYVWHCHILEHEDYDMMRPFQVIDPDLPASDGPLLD
The class given is biochemical. As to conditions: 30 °C. From the text:
spectrophotometric oxidation, Michaelis-Menten fit with uncompetitive substrate inhibition on B. coagulans LMCO (CotA)

Substrate in data set [1]: COc1cccc(OC)c1O
The class given is biochemical, Shouchella clausii. As to conditions: pH 8.0, McIlvaine buffer, 30 °C, pH 8.0. From the text: (§1) spectrophotometric oxidation, Michaelis-Menten fit with uncompetitive substrate inhibition on B. clausii LMCO (CotA)

Substrate in data set [2]: CCn1c(=NN=c2sc3cc(S(=O)(=O)O)ccc3n2CC)sc2cc(S(=O)(=O)O)ccc21
The class given is biochemical, Shouchella clausii. As to conditions: pH 4.0, McIlvaine buffer, 30 °C, pH 4.0.
From the text: as §1

With `COc1cccc(OC)c1O` [2,6-DMP, 2,6-dimethoxyphenol], the B. coagulans at B. coagulans LMCO (CotA) (pH 7.5, McIlvaine buffer) amounted to 36 ± 9.8 mM.
For `CCn1c(=NN=c2sc3cc(S(=O)(=O)O)ccc3n2CC)sc2cc(S(=O)(=O)O)ccc21` [ABTS, 2′-azino-bis(3-ethylbenzthiazoline-6-sulphonic acid)], the B. coagulans on B. coagulans LMCO (CotA) (pH 4.0, McIlvaine buffer) is 0.94 ± 0.11 mM.

B1: B. clausii LMCO (CotA) (Shouchella clausii KSM-K16) (protein)
chain: MELEKFVDPMPIMKTAIPKKTSKDGDYYEIEMKEFSQKLHRDLNPTRLWGYDGQFPGPTIEVMRGKPARIKWMNNLPDTHFLPIDRSIHHVAHEPEVRTVVHLHGSETTPASDGYPEAWFTKDFAEVGSFFEQETYEYPNDQRAATLWYHDHAMGITRLNVYAGLSGLYIIRDPREEQLNLPKGEFDIPLLIQDRSFNDDGSLFYPAQPANPAPNLPNPSVLPFFVGDTILVNGKVWPYLQVEPRKYRFRILNGSNSRSYQLALDSEAPFYQIASDGGLLRRTVSLQAFDIRPAERIEAIIDFSKFEGQTITLKNNASTDATADVMQFQVVLPLSGEDTSIIPQNLSYIPSLQQNDVKRIRNLKISGTTDEYGRPLLLLNNKLWSDPVEEKPCLGTTEIWSFVNVTNVPHPMHIHLVQFQLLDHRAFNVELYNENGQIELVGPTIPPKINERGWKDTITAPAGQITRVIARFAPFSGYYVWHCHILEHEDYDMMRPFVVIDPKTEKERR
With B1, the Km (in general, the substrate concentration at which the rate is half of its maximum) in data set [1] is 8.535 ± 2.394 mM; in data set [2], 132 ± 11 µM. Further, the kcat (commonly the maximal rate divided by the concentration of active sites) in data set [1] is 65 ± 15.2 s⁻¹; in data set [2], 90 ± 2.3 s⁻¹.
